From patent US20180238915A1 (published 2018) come the findings set out here.

Like-named read-outs stand apart in the source and are kept apart here.

Experiment [1] deals with T1, negatively modulated GCSF receptor (GCSFR(-)) (UniProt Q99062 25-621, modified by S-HyNic and conjugated through HyNic-4FB bonds to a 64-base DNA oligonucleotide (SEQ. ID 2, 5' C12 amino modifier); number and sites not stated).
T1 chain: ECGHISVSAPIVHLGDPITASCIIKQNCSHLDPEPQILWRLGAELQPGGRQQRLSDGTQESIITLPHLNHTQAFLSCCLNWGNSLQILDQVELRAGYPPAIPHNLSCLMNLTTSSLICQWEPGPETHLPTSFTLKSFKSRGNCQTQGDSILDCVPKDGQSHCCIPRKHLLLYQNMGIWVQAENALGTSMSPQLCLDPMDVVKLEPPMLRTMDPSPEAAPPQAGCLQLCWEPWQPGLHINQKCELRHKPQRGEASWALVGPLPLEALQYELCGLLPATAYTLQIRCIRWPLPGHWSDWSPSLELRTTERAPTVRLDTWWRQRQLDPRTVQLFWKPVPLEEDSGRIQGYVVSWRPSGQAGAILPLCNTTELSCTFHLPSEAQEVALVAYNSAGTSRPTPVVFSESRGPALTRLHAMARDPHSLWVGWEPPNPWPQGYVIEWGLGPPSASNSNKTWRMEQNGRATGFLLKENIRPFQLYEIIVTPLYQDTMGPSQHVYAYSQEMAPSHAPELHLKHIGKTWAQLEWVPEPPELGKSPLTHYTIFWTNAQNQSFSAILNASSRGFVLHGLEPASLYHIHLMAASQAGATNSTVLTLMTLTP

Experiment [2] concerns the target receptor. Nature of the experiment: BLI. (Biolayer interferometry detects binding as a change in optical thickness at a sensor tip.)
The target of experiment [3] is receptor.

B1: labeled G-CSF (Alexa Fluor 488) (ligand)
chain: TPLGPASSLPQSFLLKCLEQVRKIQGDGAALQEKLCATYKLCHPEELVLLGHSLGIPWAPLSSCPSQALQLAGCLSQLHSGLFLYQGLLQALEGISPELGPTLDTLQLDVADFATTIWQQMEELGMAPALQPTQGAMPAFASAFQRRAGGVLVASHLQSFLEVSYRVLRHLAQP
modifications: Alexa Fluor 488 label (carboxylic acid succinimidyl ester); sites not stated
As for B1, the koff – broadly, the rate constant with which the complex falls apart – in experiment [1] stood at 5e-05 s⁻¹.

B2: G-CSF (ligand)
chain: B1 chain
In the case of B2, the koff is less than 1e-06 s⁻¹ with receptor [2] and 3.8e-05 s⁻¹ in the experiment with receptor [3].
